These are literature values, as cited in PMC1991591.

As a reminder, the Kd is the free concentration of one partner at which half of the binding sites on the other are occupied at equilibrium, for simple one-to-one binding.

The target in this data set is Fus3 (Saccharomyces cerevisiae) (UniProt P16892).
Sequence of UniProt P16892 (P16892 whole entry): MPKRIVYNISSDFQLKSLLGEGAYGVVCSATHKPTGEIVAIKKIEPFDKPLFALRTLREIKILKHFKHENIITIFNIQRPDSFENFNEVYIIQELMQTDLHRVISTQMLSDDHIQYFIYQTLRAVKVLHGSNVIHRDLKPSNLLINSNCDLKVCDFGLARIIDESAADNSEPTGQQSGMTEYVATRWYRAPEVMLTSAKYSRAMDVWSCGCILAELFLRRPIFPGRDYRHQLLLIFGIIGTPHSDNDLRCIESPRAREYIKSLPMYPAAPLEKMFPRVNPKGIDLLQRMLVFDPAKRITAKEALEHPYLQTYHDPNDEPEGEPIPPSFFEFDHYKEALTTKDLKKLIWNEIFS

Turning to Ste5 (from UniProt P32917), the Kd was 1000 nM.
